Assay results as given in PMC11929599.

What was measured:
Assay in all cases: two-hybrid
[1] = target: SePdx Q214A fused to T25 (pKT25‐SePdx Q214A) (Synechococcus elongatus PCC 7942)
[2] = target: SePdx D28A fused to T25 (pKT25‐SePdx D28A) (Synechococcus elongatus PCC 7942)
[3] = target: SePdx Y31A fused to T25 (pKT25‐SePdx Y31A) (Synechococcus elongatus PCC 7942)
[4] = target: SePdx R96A fused to T25 (pKT25‐SePdx R96A) (Synechococcus elongatus PCC 7942)
[5] = target: SePdx R189A fused to T25 (pKT25‐SePdx R189A) (Synechococcus elongatus PCC 7942)
[6] = target: SePdx G299A fused to T25 (pKT25‐SePdx G299A) (Synechococcus elongatus PCC 7942)
[7] = target: SePdx T5A fused to T25 (pKT25‐SePdx T5A) (Synechococcus elongatus PCC 7942)
[8] = target: SePdx Y144A fused to T25 (pKT25‐SePdx Y144A) (Synechococcus elongatus PCC 7942)

Substance | decrease of β‐galactosidase activity against WT SePdx [1] | decrease of β‐galactosidase activity against WT SePdx [2] | decrease of β‐galactosidase activity against WT SePdx [3] | decrease of β‐galactosidase activity against WT SePdx [4] | decrease of β‐galactosidase activity against WT SePdx [5] | decrease of β‐galactosidase activity against WT SePdx [6] | increase of β‐galactosidase activity against WT SePdx [7] | decrease of β‐galactosidase activity against WT SePdx [8]
CpcA1 fused to T18C (pUT18C) (from UniProt P13530 1-163) (natural protein) | 40.3% | 67.6% | 46.3% | 65.1% | 60.8% |  |  | 
PSI core protein PsaE fused to T18C (pUT18C) (from UniProt Q31NL7 1-75) (natural protein) |  |  |  |  |  | 12.2% | 3.19% | 27.2%
